Source: patent US20160304571

Experiments:
[1] = biological target: Lys29-linked diubiquitin, P0CG48
[2] = biological target: Lys6-linked diubiquitin, P0CG48
[3] = biological target: Lys63-linked diubiquitin (enzymatically assembled), P0CG48
Lys63-linked diubiquitin (enzymatically assembled), P0CG48, sequence (P0CG48 whole entry, looked up): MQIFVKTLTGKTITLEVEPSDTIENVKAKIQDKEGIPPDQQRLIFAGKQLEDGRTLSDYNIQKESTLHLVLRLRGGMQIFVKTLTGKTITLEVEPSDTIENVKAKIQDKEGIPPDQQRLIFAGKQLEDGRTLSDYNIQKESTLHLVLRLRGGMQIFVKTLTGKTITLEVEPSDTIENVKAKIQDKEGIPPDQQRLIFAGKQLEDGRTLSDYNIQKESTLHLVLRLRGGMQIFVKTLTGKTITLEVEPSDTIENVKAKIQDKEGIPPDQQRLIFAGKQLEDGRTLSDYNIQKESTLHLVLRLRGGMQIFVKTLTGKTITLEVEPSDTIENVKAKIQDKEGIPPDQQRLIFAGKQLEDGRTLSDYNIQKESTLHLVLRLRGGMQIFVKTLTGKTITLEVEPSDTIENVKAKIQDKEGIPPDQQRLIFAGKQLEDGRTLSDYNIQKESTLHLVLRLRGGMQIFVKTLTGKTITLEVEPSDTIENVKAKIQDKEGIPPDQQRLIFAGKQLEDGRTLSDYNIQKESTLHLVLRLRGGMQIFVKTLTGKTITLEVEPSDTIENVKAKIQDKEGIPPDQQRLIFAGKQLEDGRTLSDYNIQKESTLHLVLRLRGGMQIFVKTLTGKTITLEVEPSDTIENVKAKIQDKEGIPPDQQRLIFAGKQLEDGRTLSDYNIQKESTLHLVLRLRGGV

Lys29-linked diubiquitin, P0CG48, sequence (P0CG48 whole entry, looked up): as above
Lys6-linked diubiquitin, P0CG48, sequence (P0CG48 whole entry, looked up): as above

Protein	cleavage in in vitro deubiquitinase assay (SDS-PAGE, silver stain) [1]	cleavage in in vitro deubiquitinase assay (SDS-PAGE, silver stain) [2]	cleavage in in vitro deubiquitinase assay (SDS-PAGE, silver stain) [3]	fold better substrate than Lys63-linked diubiquitin [1]	specificity constant (kcat/Km), quantitative western blot [1]	specificity constant (kcat/Km), fluorescence anisotropy [3]	specificity constant (kcat/Km), quantitative western blot [3]
AMSH (protein) MSDHGDVSLPPEDRVRALSQLGSAVEVNEDIPPRRYFRSGVEIIRMASIYSEEGNIEHAFILYNKYITLFIEKLPKHRDYKSAVIPEKKDTVKKLKEIAFPKAEELKAELLKRYTKEYTEYNEEKKKEAEELARNMAIQQELEKEKQRVAQQKQQQLEQEQFHAFEEMIRNQELEKERLKIVQEFGKVDPGLGGPLVPDLEKPSLDVFPTLTVSSIQPSDCHTTVRPAKPPVVDRSLKPGALSNSESIPTIDGLRHVVVPGRLCPQFLQLASANTARGVETCGILCGKLMRNEFTITHVLIPKQSAGSDYCNTENEEELFLIQDQQGLITLGWIHTHPTQTAFLSSVDLHTHCSYQMMLPESVAIVCSPKFQETGFFKLTDHGLEEISSCRQKGFHPHSKDPPLFCSCSHVTVVDRAVTITDLR	inactive against Lys6- and Lys29-linked diubiquitin	inactive against Lys6- and Lys29-linked diubiquitin	cleaves Lys63-linked diubiquitin under identical reaction conditions with high activity	–	–	–	–
Cezanne (protein) PPSFSEGSGGSRTPEKGFSDREPTRPPRPILQRQDDIVQEKRLSRGISHASSSIVSLARSHVSSNGGGGGSNEHPLEMPICAFQLPDLTVYNEDFRSFIERDLIEQSMLVALEQAGRLNWWVSVDPTSQRLLPLATTGDGNCLLHAASLGMWGFHDRDLMLRKALYALMEKGVEKEALKRRWRWQQTQQNKESGLVYTEDEWQKEWNELIKLASSEPRMHLGTNGANCGGVESSEEPVYESLEEFHVFVLAHVLRRPIVVVADTMLRDSGGEAFAPIPFGGIYLPLEVPASQCHRSPLVLAYDQAHFSALVSMEQKENTKEQAVIPLTDSEYKLLPLHFAVDPGKGWEWGKDDSDNVRLASVILSLEVKLHLLHSYMNVKWIPLSSDAQAPLAQ	also did not cleave Lys29 linkages	did not cleave Lys6-linked diubiquitin	–	–	–	–	–
BAP1 (protein) MNKGWLELESDPGLFTLLVEDFGVKGVQVEEIYDLQSKCQGPVYGFIFLFKWIEERRSRRKVSTLVDDTSVIDDDIVNNMFFAHQLIPNSCATHALLSVLLNCSSVDLGPTLSRMKDFTKGFSPESKGYAIGNAPELAKAHNSHARPEPRHLPEKQNGLSAVRTMEAFHFVSYVPITGRLFELDGLKVYPIDHGPWGEDEEWTDKARRVIMERIGLATAGEPYHDIRFNLMAVVPDRRIKYEARLHVLKVNRQTVLEALQQLIRVTQPELIQTHKSQESQLPEESKSASNKSPLVLEANRAPAASEGNHTDGAEEAAGSCAQAPSHSPPNKPKLVVKPPGSSLNGVHPNPTPIVQRLPAFLDNHNYAKSPMQEEEDLAAGVGRSRVPVRPPQQYSDDEDDYEDDEEDDVQNTNSALRYKGKGTGKPGALSGSADGQLSVLQPNTINVLAEKLKESQKDLSIPLSIKTSSGAGSPAVAVPTHSQPSPTPSNESTDTASEIGSAFNSPLRSPIRSANPTRPSSPVTSHISKVLFGEDDSLLRVDCIRYNRAVRDLGPVISTGLLHLAEDGVLSPLALTEGGKGSSPSIRPIQGSQGSSSPVEKEVVEATDSREKTGMVRPGEPLSGEKYSPKELLALLKCVEAEIANYEACLKEEVEKRKKFKIDDQRRTHNYDEFICTFISMLAQEGMLANLVEQNISVRRRQGVSIGRLHKQRKPDRRKRSRPYKAKRQ	failed to cleave	failed to cleave	–	–	–	–	–
USP5 (protein) MAELSEEALLSVLPTIRVPKAGDRVHKDECAFSFDTPESEGGLYICMNTFLGFGKQYVERHFNKTGQRVYLHLRRTRRPKEEDPATGTGDPPRKKPTRLAIGVEGGFDLSEEKFELDEDVKIVILPDYLEIARDGLGGLPDIVRDRVTSAVEALLSADSASRKQEVQAWDGEVRQVSKHAFSLKQLDNPARIPPCGWKCSKCDMRENLWLNLTDGSILCGRRYFDGSGGNNHAVEHYRETGYPLAVKLGTITPDGADVYSYDEDDMVLDPSLAEHLSHFGIDMLKMQKTDKTMTELEIDMNQRIGEWELIQESGVPLKPLFGPGYTGIRNLGNSCYLNSVVQVLFSIPDFQRKYVDKLEKIFQNAPTDPTQDFSTQVAKLGHGLLSGEYSKPVPESGDGERVPEQKEVQDGIAPRMFKALIGKGHPEFSTNRQQDAQEFFLHLINMVERNCRSSENPNEVFRFLVEEKIKCLATEKVKYTQRVDYIMQLPVPMDAALNKEELLEYEEKKRQAEEEKMALPELVRAQVPFSSCLEAYGAPEQVDDFWSTALQAKSVAVKTTRFASFPDYLVIQIKKFTFGLDWVPKKLDVSIEMPEELDISQLRGTGLQPGEEELPDIAPPLVTPDEPKGSLGFYGNEDEDSFCSPHFSSPTSPMLDESVIIQLVEMGFPMDACRKAVYYTGNSGAEAAMNWVMSHMDDPDFANPLILPGSSGPGSTSAAADPPPEDCVTTIVSMGFSRDQALKALRATNNSLERAVDWIFSHIDDLDAEAAMDISEGRSAADSISESVPVGPKVRDGPGKYQLFAFISHMGTSTMCGHYVCHIKKEGRWVIYNDQKVCASEKPPKDLGYIYFYQRVAS	rapidly cleaves all chains types tested	rapidly cleaves all chains types tested	rapidly cleaves all chains types tested	–	–	–	–
A20 (protein) MAEQVLPQALYLSNMRKAVKIRERTPEDIFKPTNGIIHHFKTMHRYTLEMFRTCQFCPQFREIIHKALIDRNIQATLESQKKLNWCREVRKLVALKTNGDGNCLMHATSQYMWGVQDTDLVLRKALFSTLKETDTRNFKFRWQLESLKSQEFVETGLCYDTRNWNDEWDNLIKMASTDTPMARSGLQYNSLEEIHIFVLCNILRRPIIVISDKMLRSLESGSNFAPLKVGGIYLPLHWPAQECYRYPIVLGYDSHHFVPLVTLKDSGPEIRAVPLVNRDRGRFEDLKVHFLTDPENEMKEKLLKEYLMVIEIPVQGWDHGTTHLINAAKLDEANLPKEINLVDDYFELVQHEYKKWQENSEQGRRE	also did not cleave Lys29 linkages	did not cleave Lys6-linked diubiquitin	–	–	–	–	–
ubiquitin C-terminal hydrolase-L3 (UCH-L3) (protein) MEGQRWLPLEANPEVTNQFLKQLGLHPNWQFVDVYGMDPELLSMVPRPVCAVLLLFPITEKYEVFRTEEEEKIKSQGQDVTSSVYFMKQTISNACGTIGLIHAIANNKDKMHFESGSTLKKFLEESVSMSPEERARYLENYDAIRVTHETSAHEGQTEAPSIDEKVDLHFIALVHVDGHLYELDGRKPFPINHGETSDETLLEDAIEVCKKFMERDPDELRFNAIALSAA	failed to cleave	failed to cleave	–	–	–	–	–
CYLD (protein) GLEIMIGKKKGIQGHYNSCYLDSTLFCLFAFSSVLDTVLLRPKEKNDVEYYSETQELLRTEIVNPLRIYGYVCATKIMKLRKILEKVEAASGFTSEEKDPEEFLNILFHHILRVEPLLKIRSAGQKVQDCYFYQIFMEKNEKVGVPTIQQLLEWSFINSNLKFAEAPSCLIIQMPRFGKDFKLFKKIFPSLELNITDLLEDTPRQCRICGGLAMYECRECYDDPDISAGKIKQFCKTCNTQVHLHPKRLNHKYNPVSLPKDLPDWDWRHGCIPCQNMELFAVLCIETSHYVAFVKYGKDDSAWLFFDSMADRDGGQNGFNIPQVTPCPEVGEYLKMSLEDLHSLDSRRIQGCARRLLCDAYMCMYQSPTMSLYK	shows little or no activity against the Lys6 and Lys29 linkage	shows little or no activity against the Lys6 and Lys29 linkage	efficiently cleaves its preferred Lys63 linkage	–	–	–	–
USP21 (protein) SDDKMAHHTLLLGSGHVGLRNLGNTCFLNAVLQCLSSTRPLRDFCLRRDFRQEVPGGGRAQELTEAFADVIGALWHPDSCEAVNPTRFRAVFQKYVPSFSGYSQQDAQEFLKLLMERLHLEINRRGRRAPPILANGPVPSPPRRGGALLEEPELSDDDRANLMWKRYLEREDSKIVDLFVGQLKSCLKCQACGYRSTTFEVFCDLSLPIPKKGFAGGKVSLRDCFNLFTKEEELESENAPVCDRCRQKTRSTKKLTVQRFPRILVLHLNRFSASRGSIKKSSVGVDFPLQRLSLGDFASDKAGSPVYQLYALCNHSGSVHYGHYTALCRCQTGWHVYNDSRVSPVSENQVASSEGYVLFYQLMQEPPRCL	rapidly cleaves all chain types tested	rapidly cleaves all chain types tested	rapidly cleaves all chain types tested	–	–	–	–
TRABID (protein) LEVDFKKLKQIKNRMKKTDWLFLNACVGVVEGDLAAIEAYKSSGGDIARQLTADEVRLLNRPSAFDVGYTLVHLAIRFQRQDMLAILLTEVSQQAAKCIPAMVCPELTEQIRREIAASLHQRKGDFACYFLTDLVTFTLPADIEDLPPTVQEKLFDEVLDRDVQKELEEESPIINWSLELATRLDSRLYALWNRTAGDCLLDSVLQATWGIYDKDSVLRKALHDSLHDCSHWFYTRWKDWESWYSQSFGLHFSLREEQWQEDWAFILSLASQPGASLEQTHIFVLAHILRRPIIVYGVKYYKSFRGETLGYTRFQGVYLPLLWEQSFCWKSPIALGYTRGHFSALVAMENDGYGNRGAGANLNTDDDVTITFLPLVDSERKLLHVHFLSAQELGNEEQQEKLLREWLDCCVTEGGVLVAMQKSSRRRNHPLVTQMVEKWLDRYRQIRPCTSLS	cleaves Lys29 linkages more rapidly than Lys63 linkages	did not cleave Lys6-linked diubiquitin	cleaves Lys29 linkages more rapidly than Lys63 linkages	40-fold better substrate	1.0 (±0.2)×10^5 M^-1 s^-1	1.7 (±2.0)×10^3 M^-1 s^-1	2.5 (±0.4)×10^3 M^-1 s^-1
